The test system of one assay is MDA-MB-435 cells. Kind of assay: Transwell migration assay. As to conditions: MDA-MB-435, 10 μg/ml in upper chamber, absence of HGF, vs mock. Format: cell-based, Human. The protocol: Transwell migration assays were carried out as previously described with modifications (Coltella et al., 2003). MDA-MB-435 cells were seeded at 1.2×10^5 cells in media containing 0.5% BSA to the upper chamber of each transwell (Costar) that had been previously coated with 10 ug/ml collagen type IV (Sigma). Mock, 10 μg/ml anti-Met 5D5-Fab, or 10 μg/ml Sema was added to the upper chamber. As a positive control, 100 ng/ml HGF was also added to the lower chamber of mock-treated wells. The next day, the cells were fixed with 4% paraformaldehyde and stained with 0.5% crystal violet. Cells that had migrated to the lower chamber were solubilized with 10% acetic acid and the absorbance was measured at 560 nm in a microplate reader.
A transwell assay with MDA-MB-435 cells was used to measure Met driven cell migration (Coltella et al., 2003). […] The data correlated with the scrape assay results in the H441 cell line. Activation of Akt was also examined in H441 and MDA-MB-435 cells used in the cell motility and migration assays. […] The data correlated with observations that rSema can inhibit cell motility in the presence of ligand. […]

The subject of a further assay is H441 cells. Kind of assay: Scrape assay (Met mediated cell motility). The class given is cell-based, Human. As to the method: H441 cells were seeded at a density of 4.5×10^4 cells/well in a 96-well plate with 10% FBS in 50:50 DMEM/F12. The next day, a single scrape was made in the confluent monolayer in each well as described previously (Lorenzato et al., 2002). The cells were then incubated with media containing 0.5% BSA and treated with mock, 10 μg/ml 5D5, 10 μg/ml Sema, or 100 ng/ml HGF. The scrape was monitored and photographed daily. Representative results are shown for Day 2.
H441 cells were used in a scrape assay as a measure of Met mediated cell motility (Lorenzato et al., 2002). H441 cells grown to high density were scraped in each well on day 0 and maintained in serum-free media containing 0.5% BSA for the duration of the experiment (FIG. 6). Cells were either treated with 10 μg/ml rSema or 5D5 or 100 ng/ml HGF as a positive control or mock treated. […] These observations were consistent in four separate experiments.
To examine the effect of rSema on cell motility in the presence of ligand, cells were treated with 0, 0.1, 0.5, or 5 μg/ml rSema plus 20 ng/ml HGF. Cells treated with HGF alone closed the gap completely by Day 1.

For assay [1], the system named is Akt. Description: Akt phosphorylation in MDA-MB-435 cells. The class given is cell-based, Human. To be noted: MDA-MB-435, increasing concentrations of rSema in the presence of HGF; data not shown. The text has this:
(§1) A transwell assay with MDA-MB-435 cells was used to measure Met driven cell migration (Coltella et al., 2003). […] The data correlated with the scrape assay results in the H441 cell line. Activation of Akt was also examined in H441 and MDA-MB-435 cells used in the cell motility and migration assays. […] The data correlated with observations that rSema can inhibit cell motility in the presence of ligand. Taken together, these observations supports the conclusion that a Sema domain antagonist, such as a recombinant polypeptide comprising a Sema sequence, is capable of not only inhibiting Met activation, but also blocking downstream effects of cell motility and migration in both ligand dependent and independent contexts.

Assay [2] deals with MAPK. Kind of assay: MAPK phosphorylation in MDA-MB-435 cells (immunoblot). Format: cell-based, Human. As to the method:
(§2) Cell lines were obtained from American Type Culture Collection (ATCC). 293 cells were maintained in DMEM supplemented with 10% FBS (Sigma), penicillin/streptomycin (GIBCO), and glutamine A549, H441, and MDA-MB-435 cells were maintained in 50:50 DMEM/F12 (Cellgro) supplemented with 10% FBS, penicillin/streptomycin, and glutamine Cells were transfected with 1-12 μg of the indicated constructs using Lipofectamine 2000 (Invitrogen) according to manufacturer's instructions. Twenty-four hrs later cells were harvested with 1% NP40 lysis buffer containing Complete protease inhibitor cocktail tablet and phosphatase inhibitor cocktail 2 (Roche and Sigma, respectively). For Met tyrosine phosphorylation and MAPK phosphorylation studies, cells were serum-starved for 2 hr with 0.5% BSA. Cells treated with 10 μg/ml anti-Met 5D5-Fab or rSema were incubated for an additional 1 hr prior to lysis. Cell debris was centrifuged and the supernatant was precleared with Protein A Sepharose (Sigma) or Protein G-Plus agarose beads (Santa Cruz) for 1 hr. […] Proteins were detected by enhanced chemiluminescence (ECL-Plus, Amersham).
(§3) Human tumor cells were treated with increasing concentrations of rSema and analyzed for Met tyrosine phosphorylation and downstream activation of mitogen activated protein kinase (MAPK) upon HGF stimulation. […]

A further assay addresses Met (Homo sapiens, UniProt P08581). Description: Met tyrosine phosphorylation in A549 cells (immunoprecipitation / phosphotyrosine immunoblot). Format: cell-based. Also on record: endogenous in cells; host or cells: A549 (lung carcinoma). As to the method: as §2, with “hr. 500 μg of lysates was then immunoprecipitated with 10 μg 5D5 antibody (Genentech) or 35 ul of Met (C-28) agarose conjugate (Santa Cruz) overnight at 4° C. with rotation. For HGF binding studies, 500 μg of lysates were incubated with 5 μg scHGF or HGF followed by immunoprecipitation with 1 μg of V5 antibody. Protein A or G beads were added for an additional 2 hrs before immunoprecipitates were washed 3 times with 1% NP40 lysis buffer. After addition of 2× sample buffer with 10 mM DTT, the samples were run on 4-12% Tris-glycine gels (Invitrogen).” for “hr.”
as §3
Background: A western blot detects proteins with antibodies after separation by electrophoresis.

The subject of assay [3] is MAPK. Description: MAPK phosphorylation in A549 cells (immunoblot). Format: cell-based, Human. The protocol:
as §2, with “hr. 500 μg of lysates was then immunoprecipitated with 10 μg 5D5 antibody (Genentech) or 35 ul of Met (C-28) agarose conjugate (Santa Cruz) overnight at 4° C. with rotation. For HGF binding studies, 500 μg of lysates were incubated with 5 μg scHGF or HGF followed by immunoprecipitation with 1 μg of V5 antibody. Protein A or G beads were added for an additional 2 hrs before immunoprecipitates were washed 3 times with 1% NP40 lysis buffer. After addition of 2× sample buffer with 10 mM DTT, the samples were run on 4-12% Tris-glycine gels (Invitrogen).” for “hr.”
as §3

In assay [4] the test system is MAPK. Kind of assay: MAPK phosphorylation in H441 cells (immunoblot). The class given is cell-based, Human. The protocol: as §2, §3
Assay [5] relates to Akt. Kind of assay: Akt phosphorylation in H441 cells. The class given is cell-based, Human. To be noted: H441, increasing concentrations of rSema in the presence of HGF; data not shown.
Text: as §1

Setting [6] is: A549, serum-free, 10 μg/ml, absence of HGF, vs mock.

Sequence of Met (P08581 308-1390, one chain of several): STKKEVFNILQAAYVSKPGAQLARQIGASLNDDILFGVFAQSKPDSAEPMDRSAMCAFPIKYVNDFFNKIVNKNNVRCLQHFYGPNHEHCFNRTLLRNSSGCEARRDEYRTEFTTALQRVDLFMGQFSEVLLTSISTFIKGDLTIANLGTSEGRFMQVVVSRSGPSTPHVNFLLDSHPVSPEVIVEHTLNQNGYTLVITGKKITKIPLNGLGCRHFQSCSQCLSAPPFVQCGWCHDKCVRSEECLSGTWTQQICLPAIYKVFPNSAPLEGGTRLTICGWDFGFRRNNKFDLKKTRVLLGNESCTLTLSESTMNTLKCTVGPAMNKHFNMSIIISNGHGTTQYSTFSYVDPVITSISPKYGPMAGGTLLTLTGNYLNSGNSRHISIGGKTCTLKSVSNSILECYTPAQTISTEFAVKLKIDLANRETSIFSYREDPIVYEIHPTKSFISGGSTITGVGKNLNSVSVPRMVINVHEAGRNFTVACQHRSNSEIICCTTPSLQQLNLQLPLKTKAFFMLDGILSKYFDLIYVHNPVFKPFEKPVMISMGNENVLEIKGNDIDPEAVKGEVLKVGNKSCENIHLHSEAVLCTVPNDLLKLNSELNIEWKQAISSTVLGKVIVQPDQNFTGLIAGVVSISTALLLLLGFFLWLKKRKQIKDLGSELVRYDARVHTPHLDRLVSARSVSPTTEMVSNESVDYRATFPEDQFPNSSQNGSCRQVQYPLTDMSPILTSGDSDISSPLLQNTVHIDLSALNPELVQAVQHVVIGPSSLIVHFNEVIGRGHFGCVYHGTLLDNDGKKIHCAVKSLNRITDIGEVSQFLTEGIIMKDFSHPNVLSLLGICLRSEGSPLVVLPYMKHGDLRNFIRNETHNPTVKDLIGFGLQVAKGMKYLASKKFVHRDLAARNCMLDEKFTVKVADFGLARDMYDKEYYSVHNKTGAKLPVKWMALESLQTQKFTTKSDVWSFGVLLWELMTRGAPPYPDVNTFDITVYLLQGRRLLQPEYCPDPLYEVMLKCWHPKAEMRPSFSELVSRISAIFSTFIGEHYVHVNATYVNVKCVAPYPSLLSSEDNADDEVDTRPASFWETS

B1: rSema: recombinant Sema (rSema) protein, which included the Sema and PSI domains of the Met receptor (residues 25-567, 8×His tag) (protein)
chain: ECKEALAKSEMNVNMKYQLPNFTAETPIQNVILHEHHIFLGATNYIYVLNEEDLQKVAEYKTGPVLEHPDCFPCQDCSSKANLSGGVWKDNINMALVVDTYYDDQLISCGSVNRGTCQRHVFPHNHTADIQSEVHCIFSPQIEEPSQCPDCVVSALGAKVLSSVKDRFINFFVGNTINSSYFPDHPLHSISVRRLKETKDGFMFLTDQSYIDVLPEFRDSYPIKYVHAFESNNFIYFLTVQRETLDAQTFHTRIIRFCSINSGLHSYMEMPLECILTEKRKKRSTKKEVFNILQAAYVSKPGAQLARQIGASLNDDILFGVFAQSKPDSAEPMDRSAMCAFPIKYVNDFFNKIVNKNNVRCLQHFYGPNHEHCFNRTLLRNSSGCEARRDEYRTEFTTALQRVDLFMGQFSEVLLTSISTFIKGDLTIANLGTSEGRFMQVVVSRSGPSTPHVNFLLDSHPVSPEVIVEHTLNQNGYTLVITGKKITKIPLNGLGCRHFQSCSQCLSAPPFVQCGWCHDKCVRSEECLSGTWTQQICLPAIYKHHHHHHHH
Regarding B1, in the assay on MDA-MB-435 cells, the “cell migration (absorbance at 560 nm of migrated cells)” value is on record as “consistently decreased”. In addition, the “gap closure in scrape assay in the presence of ligand” value in the assay with H441 cells (0, 0.1, 0.5 or 5 μg/ml rSema plus 20 ng/ml HGF, data not shown) was “retained the gap in a dose dependent manner”. The “gap closure in scrape assay” value in the assay with H441 cells (H441, 10 μg/ml, serum-free, absence of HGF, Day 2, mock gap closed completely) is on record as “a gap remained”. For the same molecule, the Akt phosphorylation entry in the assay with Akt [1] and with Akt [5] was “dose dependent decrease in Akt phosphorylation” throughout. For the same molecule, the phospho-MAPK result is “dose dependent decrease in phospho-MAPK” in the assay with MAPK [2] (MDA-MB-435, 0-100 μg/ml rSema plus 10 ng/ml HGF, 5 min) and “dose dependent decrease in phospho-MAPK” in the assay with MAPK [4] (H441, 0-100 μg/ml rSema plus 5 ng/ml HGF, 5 min). In addition, the MAPK phosphorylation result in the assay with MAPK [2] (MDA-MB-435, 10 μg/ml, absence of HGF) was “decrease in MAPK phosphorylation”; in the assay with MAPK [4] (H441, 10 μg/ml, absence of HGF), “decrease in MAPK phosphorylation”. Also, in the assay with Met (A549, serum starved, 0-100 μg/ml rSema with 10 ng/ml HGF, 10 min), the Met phosphorylation entry is listed as “decrease in Met phosphorylation”. In addition, in the assay with Met (setting [6]), the “ligand independent Met phosphorylation” value was “inhibition”. Moreover, the “phosphorylation of MAPK” value in the assay with MAPK [3] (A549, increasing concentrations of rSema in the presence of HGF (10 ng/ml)) is “phosphorylation of MAPK decreased”. Besides, in the assay with MAPK [3] (setting [6]), the phospho-MAPK levels result was “inhibition”.

The values are drawn from patent US20120171210A1, “METHODS AND COMPOSITIONS FOR INHIBITING C-MET DIMERIZATION AND ACTIVATION” (Genentech, Inc., priority 2003, published 2012).
